Experimental data as given in patent US20260209345A1 (IOMX THERAPEUTICS, published 2026).

What was measured:
recombinant LILRB1 ECD [1] = molecular target: T1, recombinant LILRB1 ECD (human, UniProt Q8NHL6 24-461); assay: ELISA, LILRB1 ECD binding to HLA-G-Fc
T1 construct: also called biotinylated LILRB1 ECD
Description: (§1) HLA-G inhibition was tested by ELISA. 384-well Maxisorp plates were coated with 2 ug/mL B2M-HLA-G fused to a mouse IgG2a-Fc and the plates were blocked with 2% (w/v) BSA in PBST. […] 15 ul of the antibody dilution series (300 nM to 0.3 nM) were mixed with 30 μL of the pre-mixed LILRB/Avidin-HRP solution (final antibody concentration 100 nM to 0.1 nM) and incubated for 1 h at room temperature. After three wash cycles with PBST, 20 μL of the antibody/LILRB/Avidin-HRP solution was transferred to the plate with immobilized HLA-G and incubated for 15 min at room temperature. After three wash cycles with PBST, residual LILRB binding to HLA-G was detected by developing the ELISA with TMB substrate.

recombinant LILRB2 ECD [2] = molecular target: T2, recombinant LILRB2 ECD (human, UniProt Q8N423 22-460); assay: ELISA, LILRB2 ECD binding to HLA-G-Fc
T2 construct: also called biotinylated LILRB2 ECD
T2 sequence (Q8N423 22-460 limits assumed): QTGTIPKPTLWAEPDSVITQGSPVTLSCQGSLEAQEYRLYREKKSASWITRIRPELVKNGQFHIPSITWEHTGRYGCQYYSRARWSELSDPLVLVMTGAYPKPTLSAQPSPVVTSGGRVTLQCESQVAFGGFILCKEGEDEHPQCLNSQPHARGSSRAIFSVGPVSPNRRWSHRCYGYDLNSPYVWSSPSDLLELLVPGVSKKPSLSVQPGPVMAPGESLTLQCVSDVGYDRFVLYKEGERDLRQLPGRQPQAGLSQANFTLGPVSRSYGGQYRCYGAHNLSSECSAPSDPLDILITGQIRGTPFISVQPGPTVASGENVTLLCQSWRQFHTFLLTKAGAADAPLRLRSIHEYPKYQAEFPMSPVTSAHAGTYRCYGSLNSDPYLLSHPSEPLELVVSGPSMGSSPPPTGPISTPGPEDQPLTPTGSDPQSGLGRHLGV
Description: as §1

recombinant LILRA1 ECD = molecular target: T3, recombinant LILRA1 ECD (human, UniProt O75019 17-461); assay: BLI, IgG on AHC sensor, ECD in solution
T3 construct: whole canonical entry named; also called LILA1
T3 sequence (O75019 17-461 limits assumed): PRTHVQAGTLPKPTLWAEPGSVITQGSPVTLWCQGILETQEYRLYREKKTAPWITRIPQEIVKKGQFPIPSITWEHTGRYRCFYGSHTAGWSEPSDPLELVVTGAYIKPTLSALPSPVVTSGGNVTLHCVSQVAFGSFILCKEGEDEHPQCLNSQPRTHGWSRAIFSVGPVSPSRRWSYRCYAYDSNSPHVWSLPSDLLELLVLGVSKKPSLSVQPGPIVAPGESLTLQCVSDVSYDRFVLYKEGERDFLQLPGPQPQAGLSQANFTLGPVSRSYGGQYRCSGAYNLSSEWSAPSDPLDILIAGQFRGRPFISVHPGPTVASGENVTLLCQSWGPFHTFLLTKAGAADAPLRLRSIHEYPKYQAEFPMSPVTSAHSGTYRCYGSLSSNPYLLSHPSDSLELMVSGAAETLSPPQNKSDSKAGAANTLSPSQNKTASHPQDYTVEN
Description: (§2) Briefly, IgGs were captured on anti-human capture (AHC) biosensors (Sartorius). […] Subsequently, the sensors were dipped into 1× Kinetics Buffer to measure the dissociation over 420 s. All sensorgrams were double referenced against 1× Kinetics Buffer and unloaded […] sensors to subtract sensor drifts and potential reference binding of the analytes. The affinities were determined by applying a 1:1 binding model.

recombinant LILRB1 ECD [3] = molecular target: T1, recombinant LILRB1 ECD; assay: BLI, IgG on AHC sensor, ECD in solution
Description: as §2

recombinant LILRA3 = molecular target: T4, recombinant LILRA3 (human, UniProt Q8N6C8 24-439); assay: BLI, IgG on AHC sensor, ECD in solution
T4 construct: whole entry named; also called LILRA3 ECD; LILA3
T4 sequence (Q8N6C8 24-439 limits assumed): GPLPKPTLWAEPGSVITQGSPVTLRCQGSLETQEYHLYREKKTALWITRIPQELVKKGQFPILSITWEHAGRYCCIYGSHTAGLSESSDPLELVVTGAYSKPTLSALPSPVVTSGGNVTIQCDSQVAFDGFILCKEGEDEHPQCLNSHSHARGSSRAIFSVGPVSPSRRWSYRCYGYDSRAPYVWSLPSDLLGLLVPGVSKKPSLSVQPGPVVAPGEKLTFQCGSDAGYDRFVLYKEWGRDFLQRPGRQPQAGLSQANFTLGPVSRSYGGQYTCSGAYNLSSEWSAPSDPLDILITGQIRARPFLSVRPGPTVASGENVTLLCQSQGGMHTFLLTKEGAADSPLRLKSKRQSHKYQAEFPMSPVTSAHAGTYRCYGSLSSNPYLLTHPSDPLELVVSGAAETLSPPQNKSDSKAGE
Description: as §2

recombinant LILRB2 ECD [4] = molecular target: T2, recombinant LILRB2 ECD; assay: BLI, IgG on AHC sensor, ECD in solution
Description: as §2

T1 sequence (Q8NHL6 24-461 limits assumed): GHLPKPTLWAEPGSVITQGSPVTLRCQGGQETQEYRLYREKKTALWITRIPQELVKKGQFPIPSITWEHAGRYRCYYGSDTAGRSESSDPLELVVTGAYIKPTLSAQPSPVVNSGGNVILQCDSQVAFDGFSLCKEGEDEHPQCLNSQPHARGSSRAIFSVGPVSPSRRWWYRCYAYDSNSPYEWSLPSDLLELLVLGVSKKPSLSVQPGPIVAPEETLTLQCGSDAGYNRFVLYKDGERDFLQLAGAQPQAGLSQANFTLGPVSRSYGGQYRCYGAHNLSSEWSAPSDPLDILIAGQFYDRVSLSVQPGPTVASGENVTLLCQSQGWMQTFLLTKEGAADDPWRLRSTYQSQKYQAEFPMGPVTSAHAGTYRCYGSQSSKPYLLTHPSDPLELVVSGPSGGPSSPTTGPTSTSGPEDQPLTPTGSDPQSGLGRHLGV

Row | Binder | IC50 (recombinant LILRB1 ECD [1]) | IC50 (recombinant LILRB2 ECD [2]) | Kd (recombinant LILRA1 ECD) | Kd (recombinant LILRB1 ECD [3]) | Kd (recombinant LILRA3) | Kd (recombinant LILRB2 ECD [4])
1 | A-019 (antibody, V domains shown, tested as IgG) VH: QVQLVQSGAEVKKPGSSVKVSCKASGYTFTTSAMNWVRQAPGQGLEWMGGIIPYFSTANYAPKFQGRVTITADESTSTAYMELSSLRSEDTAVYYCAKDLGTYSSGWPYYYGMDVWGQGTTVTVSS VL: SYELTQPPSVSVSPGQTASITCSGDKLGDKYASWYQQKPGQSPVLVIYQDSKRPSGIPERFSGSNSGNTATLTISGTQAEDEADYYCQSTTHTSFVFGGGTKLTVL | 4 nM | 4.9 nM | 1030 nM | 20.7 nM | 144 nM | 3.9 nM
2 | A-020 (antibody, V domains shown, tested as IgG) VH: QVQLVQSGAEVKKPGSSVKVSCKASGGTFQTYAISWVRQAPGQGLEWMGSIIPKFYQSNYAYKFQGRVTITADESTSTAYMELSSLRSEDTAVYYCAKDLGTYSSGWPYYYGMDVWGQGTTVTVSS VL: SYELTQPPSVSVSPGQTASITCSGDKLGDKYASWYQQKPGQSPVLVIYQDSKRPSGIPERFSGSNSGNTATLTISGTQAEDEADYYCQSTTHTSFVFGGGTKLTVL | 3.7 nM | 3.8 nM | 316 nM | 21.2 nM | 392 nM | 2.9 nM
3 | A-021 (antibody, V domains shown, tested as IgG) VH: QVQLVQSGAEVKKPGSSVKVSCKASGGSITSYAFAWVRQAPGQGLEWMGGIIPGFYAANYAQKFQGRVTITADESTSTAYMELSSLRSEDTAVYYCAKDLGTYSSGWPYYYGMDVWGQGTTVTVSS VL: SYELTQPPSVSVSPGQTASITCSGDKLGDKYASWYQQKPGQSPVLVIYQDSKRPSGIPERFSGSNSGNTATLTISGTQAEDEADYYCQSTTHTSFVFGGGTKLTVL | 4.2 nM | 5 nM | 541 nM | 4.9 nM | 157 nM | 3.1 nM
4 | A-034 (antibody, V domains shown, tested as IgG) VH: QVQLVQSGAEVKKPGSSVKVSCKASGGTFSSYAISWVRQAPGQGLEWMGGIIPIFGTANYAQKFQGRVTITADESTSTAYMELSSLRSEDTAVYYCAKDLGTYSSGWPYYYGMDVWGQGTTVTVSS VL: SYELTQPPSVSVSPGQTASITCSGDKLGDKYASWYQQKPGQSPVLVIYQDSKRPSGIPERFSGSNSGNTATLTISGTQAEDEADYYCQLYGHTITVFGGGTKLTVL | 3.3 nM | 5.6 nM | 2690 nM | 16.4 nM | 678 nM | 82.7 nM
5 | A-035 (antibody, V domains shown, tested as IgG) VH: QVQLVQSGAEVKKPGSSVKVSCKASGGTFSSYAISWVRQAPGQGLEWMGGIIPIFGTANYAQKFQGRVTITADESTSTAYMELSSLRSEDTAVYYCAKDLGTYSSGWPYYYGMDVWGQGTTVTVSS VL: SYELTQPPSVSVSPGQTASITCSGDKLGDKYASWYQQKPGQSPVLVIYQDSKRPSGIPERFSGSNSGNTATLTISGTQAEDEADYYCQLSHGTLLVFGGGTKLTVL | 1.7 nM | 3.5 nM | 734 nM | 12.9 nM | 1250 nM | 30.8 nM
6 | A-003 (antibody, V domains shown, tested as IgG; also called parental antibody A-003) VH: QVQLVQSGAEVKKPGSSVKVSCKASGGTFSSYAISWVRQAPGQGLEWMGGIIPIFGTANYAQKFQGRVTITADESTSTAYMELSSLRSEDTAVYYCAKGPPVGSSSWYTDWYFDLWGRGTLVTVSS VL: SYELTQPPSVSVSPGQTASITCSGDKLGDKYASWYQQKPGQSPVLVIYQDSKRPSGIPERFSGSNSGNTATLTISGTQAEDEADYYCLSYGAHSHGVVFGGGTKLTVL | 16.5 nM | 65.8 nM | 342 nM | 99.4 nM | 519 nM | 73.1 nM
7 | A-023 (antibody, V domains shown, tested as IgG) VH: QVQLVQSGAEVKKPGSSVKVSCKASGYTFQQYAMSWVRQAPGQGLEWIGGIIPQFSTSVYAQKFQGRVTITADESTSTAYMELSSLRSEDTAVYYCAKGPPVGSSSWYTDWYFDLWGRGTLVTVSS VL: SYELTQPPSVSVSPGQTASITCSGDKLGDKYASWYQQKPGQSPVLVIYQDSKRPSGIPERFSGSNSGNTATLTISGTQAEDEADYYCLSYGAHSHGVVFGGGTKLTVL | 7.5 nM | 6.8 nM | 82.4 nM | 3.1 nM | 230 nM | 4.3 nM
